Target: Psy2 with aa 25–129 deleted, fused to lexA-DBD (S. cerevisiae)
Assay: two-hybrid

B1: DDC2 fused to B42-AD (natural protein)
chain: MRRETVGEFSSDDDDDILLELGTRPPRFTQIPPSSAALQTQIPTTLEVTTTTLNNKQSKNDNQLVNQLNKAQGEASMLRDKINFLNIEREKEKNIQAVKVNELQVKHLQELAKLKQELQKLEDEKKFLQMEARGKSKREVITNVKPPSTTLSTNTNTITPDSSSVAIEAKPQSPQSKKRKISDNLLKKNMVPLNPNRIIPDETSLFLESILLHQIIGADLSTIEILNRLKLDYITEFKFKNFVIAKGAPIGKSIVSLLLRCKKTLTLDRFIDTLLEDIAVLIKEISVHPNESKLAVPFLVALMYQIVQFRPSATHNLALKDCFLFICDLIRIYHHVLKVPIHESNMNLHVEPQIFQYELIDYLIISYSFDLLEGILRVLQSHPKQTYMEFFDENILKSFEFVYKLALTISYKPMVNVIFSAVEVVNIITSIILNMDNSSDLKSLISGSWWRDCITRLYALLEKEIKSGDVYNENVDTTTLHMSKYHDFFGLIRNIGDNELGGLISKLIYTDRLQSVPRVISKEDIGMDSDKFTAPIIGYKMEKWLLKLKDEVLNIFENLLMIYGDDATIVNGEMLIHSSKFLSREQALMIERYVGQDSPNLDLRCHLIEHTLTIIYRLWKDHFKQLREEQIKQVESQLIMSLWRFLVCQTETVTANEREMRDHRHLVDSLHDLTIKDQASYYEDAFEDLPEYIEEELKMQLNKRTGRIMQVKYDEKFQEMARTILESKSFDLTTLEEADSLYISMGL
percent reduction of the two-hybrid interaction: 50%
